{
  "source": "patent US20220025010A1",
  "about": "(ANTAG THERAPEUTICS, published 2022)",
  "binders": {"B1": {"name": "AT257 (peptide)", "peptide": "GGTFISDYSIAMDRIK(C16 diacid)QQDFVNWLLAQR-OH", "modifications": "N-terminus assumed", "SMILES": "CC[C@H](C)[C@H](NC(=O)[C@H](CO)NC(=O)[C@H](Cc1ccc(O)cc1)NC(=O)[C@H](CC(=O)O)NC(=O)[C@H](CO)NC(=O)[C@@H](NC(=O)[C@H](Cc1ccccc1)NC(=O)[C@@H](NC(=O)CNC(=O)CN)[C@@H](C)O)[C@@H](C)CC)C(=O)N[C@@H](C)C(=O)N[C@@H](CCSC)C(=O)N[C@@H](CC(=O)O)C(=O)N[C@@H](CCCNC(=N)N)C(=O)N[C@H](C(=O)N[C@@H](CCCCNC(=O)CCCCCCCCCCCCCCC(=O)O)C(=O)N[C@@H](CCC(N)=O)C(=O)N[C@@H](CCC(N)=O)C(=O)N[C@@H](CC(=O)O)C(=O)N[C@@H](Cc1ccccc1)C(=O)N[C@H](C(=O)N[C@@H](CC(N)=O)C(=O)N[C@@H](Cc1c[nH]c2ccccc12)C(=O)N[C@@H](CC(C)C)C(=O)N[C@@H](CC(C)C)C(=O)N[C@@H](C)C(=O)N[C@@H](CCC(N)=O)C(=O)N[C@@H](CCCNC(=N)N)C(=O)O)C(C)C)[C@@H](C)CC"}},
  "assay_in_all_cases": "cell-based or functional assay",
  "key": {"human GIP receptor [1]": {"target": "T1, human GIP receptor (human, UniProt P48546 22-466)", "T1 sequence (looked up)": "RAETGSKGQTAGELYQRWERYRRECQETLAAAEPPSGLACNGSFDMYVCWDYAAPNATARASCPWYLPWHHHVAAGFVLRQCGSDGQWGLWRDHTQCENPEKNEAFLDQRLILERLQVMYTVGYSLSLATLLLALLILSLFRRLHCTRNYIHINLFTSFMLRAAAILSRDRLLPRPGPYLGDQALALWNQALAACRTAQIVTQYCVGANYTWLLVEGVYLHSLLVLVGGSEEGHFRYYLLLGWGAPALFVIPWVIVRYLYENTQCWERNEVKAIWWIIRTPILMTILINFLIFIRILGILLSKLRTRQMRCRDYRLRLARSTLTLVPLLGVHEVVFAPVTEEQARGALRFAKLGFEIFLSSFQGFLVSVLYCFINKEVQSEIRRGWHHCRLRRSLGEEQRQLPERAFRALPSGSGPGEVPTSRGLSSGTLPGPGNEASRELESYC"}, "GLP1 receptor": {"target": "GLP1 receptor (UniProt P43220 24-463, limits assumed)"}, "human GIP receptor [2]": {"target": "T1, human GIP receptor", "remark": "listed apart in the source"}, "glucagon receptor": {"target": "glucagon receptor (UniProt P47871 26-477, limits assumed)", "sequence (P47871 26-477 limits assumed)": "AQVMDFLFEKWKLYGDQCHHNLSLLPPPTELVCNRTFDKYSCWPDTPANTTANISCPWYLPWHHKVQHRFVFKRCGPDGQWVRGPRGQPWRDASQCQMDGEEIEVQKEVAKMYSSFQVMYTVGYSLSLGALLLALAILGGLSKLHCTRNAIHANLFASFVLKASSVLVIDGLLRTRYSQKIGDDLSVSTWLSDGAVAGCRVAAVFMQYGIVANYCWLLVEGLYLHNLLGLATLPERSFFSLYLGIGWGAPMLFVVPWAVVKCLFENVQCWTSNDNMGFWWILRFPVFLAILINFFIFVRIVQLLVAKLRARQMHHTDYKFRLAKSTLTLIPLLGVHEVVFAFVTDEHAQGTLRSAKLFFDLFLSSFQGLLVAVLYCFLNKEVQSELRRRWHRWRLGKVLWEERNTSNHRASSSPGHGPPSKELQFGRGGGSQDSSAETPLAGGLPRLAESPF"}},
  "note": "Read-outs that look alike come from different tables or passages of the source. Where no end group is shown, it is not given here. The star is where a group is joined. C16 diacid = O=C(O)CCCCCCCCCCCCCCC(=O)*",
  "data": [
    {"binder": "B1", "values": [
      {"measurement": "CisBio cAMP agonism % Efficacy", "setting": "human GIP receptor [1]", "result": 5, "unit": "%"},
      {"measurement": "CisBio cAMP antagonism % inhib", "setting": "human GIP receptor [1]", "result": 80, "unit": "%"},
      {"measurement": "CisBio cAMP antagonism IC50", "setting": "human GIP receptor [1]", "result": 136, "unit": "nM"},
      {"measurement": "CisBio cAMP antagonism pIC50", "setting": "human GIP receptor [1]", "result": 6.9},
      {"measurement": "DiscoveRx cAMP agonism Emax", "setting": "human GIP receptor [1]", "result": 4},
      {"measurement": "DiscoveRx cAMP antagonism IC50", "setting": "human GIP receptor [1]", "result": 21, "unit": "nM"},
      {"measurement": "DiscoveRx cAMP antagonism log IC50", "setting": "human GIP receptor [1]", "result": -7.7, "unit": "log M"},
      {"measurement": "cAMP antagonism % inhib", "setting": "GLP1 receptor", "result": 55, "unit": "%"},
      {"measurement": "cAMP antagonism IC50", "setting": "GLP1 receptor", "result": 5390, "unit": "nM"},
      {"measurement": "cAMP antagonism index", "setting": "GLP1 receptor", "result": 256},
      {"measurement": "cAMP antagonism log IC50", "setting": "GLP1 receptor", "result": -5.3, "unit": "log M"},
      {"measurement": "CisBio cAMP antagonism % inhib", "setting": "human GIP receptor [2]", "result": 80, "unit": "%"},
      {"measurement": "CisBio cAMP antagonism IC50", "setting": "human GIP receptor [2]", "result": 136, "unit": "nM"},
      {"measurement": "cAMP antagonism IC50", "setting": "human GIP receptor [2]", "result": 21, "unit": "nM"},
      {"measurement": "cAMP antagonism % inhib", "setting": "glucagon receptor", "result": 100, "unit": "%"},
      {"measurement": "cAMP antagonism IC50", "setting": "glucagon receptor", "result": 15, "unit": "nM"},
      {"measurement": "cAMP antagonism index", "setting": "glucagon receptor", "result": 1}
    ]}
  ]
}
